The record followed here is PMC12629592, “MCAK recognizes the nucleotide-dependent feature at growing microtubule ends” (eLife, 2025).

Data set [1] has as its target tubulin from porcine brain, polymerised into microtubules (porcine) (UniProt P02550). The data set can be described thus: single-molecule TIRF microscopy; single-molecule localisation at growing microtubule ends (tubulin 12 μM): 1 nM GFP-MCAK with 1 mM ATP, 10 nM EB1-GFP or 1 nM XMAP215-GFP, each alone; apparent constants.
Data set [2] has the same target. Description: single-molecule TIRF microscopy; binding events at the growing plus-end of dynamic microtubules (tubulin 16 μM); GFP-MCAK with 1 mM ADP; apparent constants, per tubulin dimer.
Data set [3] has the same target. The data set can be described thus: single-molecule TIRF microscopy; binding events at the growing plus-end of dynamic microtubules (tubulin 16 μM); GFP-MCAK with 1 mM AMPPNP; apparent constants, per tubulin dimer.
Data set [4] has the same target. The data set can be described thus: single-molecule TIRF microscopy; binding events on the lattice of dynamic microtubules (tubulin 16 μM) grown from immobilised GMPCPP seeds; 10 nM GFP-MCAK (10 nM K524A, 30 nM V298S); 1 mM ATP; BRB80 + 50 mM KCl, 35°C; apparent constants, per tubulin dimer.
Data set [5] has the same target. Description: single-molecule TIRF microscopy; binding events at the growing plus-end of dynamic microtubules (tubulin 16 μM); GFP-MCAK without nucleotide (APO); apparent constants, per tubulin dimer.
Data set [6] has the same target. The data set can be described thus: single-molecule TIRF microscopy; binding events on the lattice of dynamic microtubules (tubulin 16 μM); GFP-MCAK with 1 mM AMPPNP.
Data set [7] concerns the molecule itself. Description: SEC; Superose 6 Increase 5/150 GL; BRB80 with 50 mM KCl and 1 mM ATP. Background: SEC sorts molecules by how far they enter the pores of the column.
The target of data set [8] is tubulin from porcine brain, polymerised into microtubules (porcine) (UniProt P02550). The data set can be described thus: single-molecule TIRF microscopy; binding events at the growing plus-end (end region 162 nm FWHM) of dynamic microtubules (tubulin 16 μM) grown from immobilised GMPCPP seeds; 10 nM GFP-MCAK (10 nM K524A, 30 nM V298S); 1 mM ATP; BRB80 + 50 mM KCl, 2 mM GTP, 35°C; apparent constants, per tubulin dimer.

Data set [9] shares this target. The data set can be described thus: single-molecule TIRF microscopy; binding events at the minus-ends of dynamic microtubules; GFP-MCAK, 1 mM ATP; BRB80 + 50 mM KCl, 35°C; apparent constants, per tubulin dimer.
For data set [10] the target is unchanged. The data set can be described thus: single-molecule TIRF microscopy; single-molecule localisation at growing microtubule ends (tubulin 12 μM): 1 nM GFP-MCAK with 1 mM ATP, 10 nM EB1-GFP or 1 nM XMAP215-GFP, each alone; apparent constants. This is another data set of the same source.

As to “EB1-GFP (from UniProt Q15691 1-268) (natural protein)”, the Kd in [1] was 722 µM.

B1: GFP-MCAK (mitotic centromere-associated kinesin, wild type) (enzyme, UniProt Q99661 1-725, looked up)
chain: MAMDSSLQARLFPGLAIKIQRSNGLIHSANVRTVNLEKSCVSVEWAEGGATKGKEIDFDDVAAINPELLQLLPLHPKDNLPLQENVTIQKQKRRSVNSKIPAPKESLRSRSTRMSTVSELRITAQENDMEVELPAAANSRKQFSVPPAPTRPSCPAVAEIPLRMVSEEMEEQVHSIRGSSSANPVNSVRRKSCLVKEVEKMKNKREEKKAQNSEMRMKRAQEYDSSFPNWEFARMIKEFRATLECHPLTMTDPIEEHRICVCVRKRPLNKQELAKKEIDVISIPSKCLLLVHEPKLKVDLTKYLENQAFCFDFAFDETASNEVVYRFTARPLVQTIFEGGKATCFAYGQTGSGKTHTMGGDLSGKAQNASKGIYAMASRDVFLLKNQPCYRKLGLEVYVTFFEIYNGKLFDLLNKKAKLRVLEDGKQQVQVVGLQEHLVNSADDVIKMIDMGSACRTSGQTFANSNSSRSHACFQIILRAKGRMHGKFSLVDLAGNERGADTSSADRQTRMEGAEINKSLLALKECIRALGQNKAHTPFRESKLTQVLRDSFIGENSRTCMIATISPGISSCEYTLNTLRYADRVKELSPHSGPSGEQLIQMETEEMEACSNGALIPGNLSKEEEELSSQMSSFNEAMTQIRELEEKAMEELKEIIQQGPDWLELSEMTEQPDYDLETFVNKAESALAQQAKHFSALRDVIKALRLAMQLEEQASRQISSKKRPQ
notes: MCAK (mitotic centromere-associated kinesin, kinesin-13); GFP-MCAK monomer printed as 110 kDa; Dimer by size-exclusion chromatography; Used with 1 mM ATP, AMPPNP, ADP or without nucleotide (APO); Purification adapted from Helenius et al., 2006; The printed residue numbers (K524, V298, T537) and the 110 kDa mass fit whole human MCAK (surmised); also called MCAK‧ATP; MCAK‧AMPPNP; source: Sf9, …
One may read the kon as the rate constant with which the complex forms. By stoichiometry N is commonly meant a count of units in the complex or per binding partner. With B1, in data set [2], the Kd worked out at 163 µM, the RE/L (kon at the plus-end over kon on the lattice) is 2 and the dwell time is 0.46 s. Moreover, in data set [3], the Kd is 61 µM, the RE/L (kon at the plus-end over kon on the lattice) came out at 11 and the dwell time was determined as 3.32 s. Also, in [4], the Kd is 1060 µM, the dwell time was 0.62 s and the kon came out at 2800 M⁻¹ s⁻¹. In data set [5], the Kd turned out to be 1.8 µM, the RE/L (kon at the plus-end over kon on the lattice) was 2 and the dwell time was 1.89 s. For the same molecule, the dwell time in data set [6] was determined as 1.46 s. The “stoichiometry N” value in data set [7] was found to be 2. Also, in data set [8], the Kd stood at 69 µM; the dwell time is 0.75 s; the effective dissociation constant (the microtubule end taken as one multivalent receptor, end length 160 nm) came out at 260 nM; the kon was found to be 22600 M⁻¹ s⁻¹. In data set [9], the Kd was found to be 40 µM and the RE/L (kon at the end over kon on the lattice) worked out at 13. For the same molecule, in data set [10], the dwell time of distally distributed molecules at the growing end turned out to be 0.8 s and the dwell time of proximally distributed molecules at the growing end turned out to be 0.7 s.
